From article PMC2614139

Biological target: GCaMP2 (original protein with the N-terminal hexahistidine tag and RSET module) (not stated | Aequorea victoria)
Assay: AUC

- stoichiometry N: 2
Substance: GCaMP2 (original protein with the N-terminal hexahistidine tag and RSET module)
